Laboratory results from US20210171654A1.

Assays:
[1] = molecular target: Human SIRPa-His fusion protein (extracellular domain of human SIRPa fused to His-tag) (human) (UniProt P78324); experiment: Biacore (surface plasmon resonance), antibody captured, monomeric human SIRPa-His as analyte
[2] = molecular target: Human SIRPa-His fusion protein (extracellular domain of human SIRPa fused to His-tag) (human) (UniProt P78324); experiment: SPR, Biacore 3000 at 25 C, antibody captured by goat anti-human antibody, SIRPa-His as analyte

Kd [1]	Kd [2]	Binder
5.58 nM	–	3C2 (parental mouse anti-human SIRPa monoclonal antibody) (antibody, V domains shown) VH: QVQLQQPGAELVRPGSSVKLSCKASGYTFTSYWMHWVKQRPIQGLEWIGNIDPSDSDTHYNQKFKDKATLTVDKSSSTAYMQLSSLTSEDSAVYYCARGYSKYYAMDYWGQGTSVTVSS VL: DVLMTQTPLSLSVSLGDQASISCRSSQSIVHSYGNTYLEWYLQKPGQSPKLLIYKVSNRFSGVPDRFSGSGSGTDFTLKISRVEAEDLGVYYCFQGSHVPYTFGGGTKLEIK
–	1.15 nM	Humanized 1H9 (antibody, human IgG1, kappa, N297A, V domains shown) VH: QVQLVQSGAEVKKPGASVKVSCKASGYTFTSYWITWVKQAPGQGLEWIGDIYPGSGSTNHIEKFKSKATLTVDTSISTAYMELSRLRSDDTAVYYCATGYGSSYGYFDYWGQGTLVTVSS VL: DIQMTQSPSSLSASVGDRVTITCRASENIYSYLAWYQQKPGKAPKLLIYTAKTLAEGVPSRFSGSGSGTDFTLTISSLQPEDFATYYCQHQYGPPFTFGQGTKLEIKR

Further lines, the binder ahead of its results:

Binder	Kd [1]	Kd [2]
1H9 (parental mouse anti-human SIRPa monoclonal antibody) (antibody, V domains shown) VH: QVQLQQPGAERVKPGASVKMSCKASGYTFTSYWITWVKQRPGQGLEWIGDIYPGSGSTNHIEKFKSKATLTVDTSSNTAYMQLSRLTSEDSAVYYCATGYGSSYGYFDYWGQGTTLTVSS VL: DIQMTQSPASLSASVGETVTITCRASENIYSYLAWYQQKQGKSPQLLVYTAKTLAEGVPSRFSGSGSGTQFSLKINSLQPEDFGNYYCQHQYGPPFTFGSGTRLVIK	2.06 nM	–
Humanized 3C2 (antibody, human IgG1, kappa, N297A, V domains shown) VH: QVQLVQSGAEVKKPGASVKVSCKASGYTFTSYWMHWVRQAPGQGLEWMGNIDPSDSDTHYNQKFKDRVTMTRDTSTSTVYMELSSLRSEDTAVYYCARGYSKYYAMDYWGQGTLVTVSS VL: DIVMTQTPLSLSVTPGQPASISCRSSQSIVHSYGNTYLEWYLQKPGQSPQLLIYKVSNRFSGVPDRFSGSGSGTDFTLKISRVEAEDVGVYYCFQGSHVPYTFGQGTKLEIKR	–	5.53 nM
